Test results: the supplement of paper PMC10567573

B1: NEK8 (parent)
chain: YTFGSNQHGQLGTNTRRGSRAPCK

Variants of: B1
Assay: protein stability index of a GFP-peptide fusion (GPS, HEK-293T) (PSI 1-6); higher = more stable
Settings: c terminus: a fixed tail appended
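Further: lentivirally expressed fusions sorted by FACS into six bins by GFP to DsRed ratio, PSI derived from sequencing read proportions per bin multiplied by bin number.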

Variant | protein stability index
YTFGSNLHGQLGTNTRRGSRAPCK [Q7L] | 2.28
YTFGSNMHGQLGTNTRRGSRAPCK [Q7M] | 3.66
YTFGSNNHGQLGTNTRRGSRAPCK [Q7N] | 4.06
YTFGSNPHGQLGTNTRRGSRAPCK [Q7P] | 3.81
YTFGSNRHGQLGTNTRRGSRAPCK [Q7R] | 3.81
YTFGSNSHGQLGTNTRRGSRAPCK [Q7S] | 3.58
YTFGSNTHGQLGTNTRRGSRAPCK [Q7T] | 4.28
YTFGSNVHGQLGTNTRRGSRAPCK [Q7V] | 3.84
YTFGSNWHGQLGTNTRRGSRAPCK [Q7W] | 2.73
YTFGSNYHGQLGTNTRRGSRAPCK [Q7Y] | 3.09
YTFGSNQAGQLGTNTRRGSRAPCK [H8A] | 3.98
YTFGSNQCGQLGTNTRRGSRAPCK [H8C] | 3.94
YTFGSNQDGQLGTNTRRGSRAPCK [H8D] | 4.15
YTFGSNQEGQLGTNTRRGSRAPCK [H8E] | 4.47
YTFGSNQFGQLGTNTRRGSRAPCK [H8F] | 3.23
YTFGSNQGGQLGTNTRRGSRAPCK [H8G] | 3.61
YTFGSNQIGQLGTNTRRGSRAPCK [H8I] | 3.48
YTFGSNQKGQLGTNTRRGSRAPCK [H8K] | 4
YTFGSNQLGQLGTNTRRGSRAPCK [H8L] | 3.37
YTFGSNQMGQLGTNTRRGSRAPCK [H8M] | 3.75
YTFGSNQNGQLGTNTRRGSRAPCK [H8N] | 3.99
YTFGSNQPGQLGTNTRRGSRAPCK [H8P] | 3.97
YTFGSNQQGQLGTNTRRGSRAPCK [H8Q] | 3.92
YTFGSNQRGQLGTNTRRGSRAPCK [H8R] | 3.92

Variant | protein stability index
YTFGSNQSGQLGTNTRRGSRAPCK [H8S] | 3.77
YTFGSNQTGQLGTNTRRGSRAPCK [H8T] | 3.87
YTFGSNQVGQLGTNTRRGSRAPCK [H8V] | 4.01
YTFGSNQWGQLGTNTRRGSRAPCK [H8W] | 2.36
YTFGSNQYGQLGTNTRRGSRAPCK [H8Y] | 3.36
YTFGSNQHAQLGTNTRRGSRAPCK [G9A] | 3.39
YTFGSNQHCQLGTNTRRGSRAPCK [G9C] | 3.48
YTFGSNQHDQLGTNTRRGSRAPCK [G9D] | 4.11
YTFGSNQHEQLGTNTRRGSRAPCK [G9E] | 3.98
YTFGSNQHFQLGTNTRRGSRAPCK [G9F] | 2.1
YTFGSNQHHQLGTNTRRGSRAPCK [G9H] | 4.16
YTFGSNQHIQLGTNTRRGSRAPCK [G9I] | 3.05
YTFGSNQHKQLGTNTRRGSRAPCK [G9K] | 4.12
YTFGSNQHLQLGTNTRRGSRAPCK [G9L] | 3.19
YTFGSNQHMQLGTNTRRGSRAPCK [G9M] | 3.19
YTFGSNQHNQLGTNTRRGSRAPCK [G9N] | 3.98
YTFGSNQHPQLGTNTRRGSRAPCK [G9P] | 3.38
YTFGSNQHQQLGTNTRRGSRAPCK [G9Q] | 3.94
YTFGSNQHRQLGTNTRRGSRAPCK [G9R] | 3.94
YTFGSNQHSQLGTNTRRGSRAPCK [G9S] | 4.15
YTFGSNQHTQLGTNTRRGSRAPCK [G9T] | 3.82
YTFGSNQHVQLGTNTRRGSRAPCK [G9V] | 2.78
YTFGSNQHWQLGTNTRRGSRAPCK [G9W] | 2.16
YTFGSNQHYQLGTNTRRGSRAPCK [G9Y] | 2.23

Variant | protein stability index
YTFGSNQHGALGTNTRRGSRAPCK [Q10A] | 4.21
YTFGSNQHGCLGTNTRRGSRAPCK [Q10C] | 3.36
YTFGSNQHGDLGTNTRRGSRAPCK [Q10D] | 4.45
YTFGSNQHGELGTNTRRGSRAPCK [Q10E] | 4.33
YTFGSNQHGFLGTNTRRGSRAPCK [Q10F] | 3.33
YTFGSNQHGGLGTNTRRGSRAPCK [Q10G] | 4.08
YTFGSNQHGHLGTNTRRGSRAPCK [Q10H] | 3.89
YTFGSNQHGILGTNTRRGSRAPCK [Q10I] | 3.47
YTFGSNQHGKLGTNTRRGSRAPCK [Q10K] | 3.41
YTFGSNQHGLLGTNTRRGSRAPCK [Q10L] | 3.36
YTFGSNQHGMLGTNTRRGSRAPCK [Q10M] | 3.58
YTFGSNQHGNLGTNTRRGSRAPCK [Q10N] | 3.83
YTFGSNQHGPLGTNTRRGSRAPCK [Q10P] | 4
YTFGSNQHGRLGTNTRRGSRAPCK [Q10R] | 3.82
YTFGSNQHGSLGTNTRRGSRAPCK [Q10S] | 3.58
YTFGSNQHGTLGTNTRRGSRAPCK [Q10T] | 4.32
YTFGSNQHGVLGTNTRRGSRAPCK [Q10V] | 3.31
YTFGSNQHGWLGTNTRRGSRAPCK [Q10W] | 1.52
YTFGSNQHGYLGTNTRRGSRAPCK [Q10Y] | 3.52
YTFGSNQHGQAGTNTRRGSRAPCK [L11A] | 4.38
YTFGSNQHGQCGTNTRRGSRAPCK [L11C] | 4.02
YTFGSNQHGQDGTNTRRGSRAPCK [L11D] | 4.49
YTFGSNQHGQEGTNTRRGSRAPCK [L11E] | 4.53
YTFGSNQHGQFGTNTRRGSRAPCK [L11F] | 3.76

Variant | protein stability index
YTFGSNQHGQGGTNTRRGSRAPCK [L11G] | 4.53
YTFGSNQHGQHGTNTRRGSRAPCK [L11H] | 4.23
YTFGSNQHGQIGTNTRRGSRAPCK [L11I] | 3.93
YTFGSNQHGQKGTNTRRGSRAPCK [L11K] | 3.56
YTFGSNQHGQMGTNTRRGSRAPCK [L11M] | 4.01
YTFGSNQHGQNGTNTRRGSRAPCK [L11N] | 4.3
YTFGSNQHGQPGTNTRRGSRAPCK [L11P] | 4.22
YTFGSNQHGQQGTNTRRGSRAPCK [L11Q] | 4.49
YTFGSNQHGQRGTNTRRGSRAPCK [L11R] | 4.65
YTFGSNQHGQSGTNTRRGSRAPCK [L11S] | 4.94
YTFGSNQHGQTGTNTRRGSRAPCK [L11T] | 4.43
YTFGSNQHGQVGTNTRRGSRAPCK [L11V] | 4.1
YTFGSNQHGQWGTNTRRGSRAPCK [L11W] | 3.22
YTFGSNQHGQYGTNTRRGSRAPCK [L11Y] | 3.95
YTFGSNQHGQLATNTRRGSRAPCK [G12A] | 4.36
YTFGSNQHGQLCTNTRRGSRAPCK [G12C] | 3.71
YTFGSNQHGQLDTNTRRGSRAPCK [G12D] | 4.68
YTFGSNQHGQLETNTRRGSRAPCK [G12E] | 4.19
YTFGSNQHGQLFTNTRRGSRAPCK [G12F] | 3.09
YTFGSNQHGQLHTNTRRGSRAPCK [G12H] | 4.37
YTFGSNQHGQLITNTRRGSRAPCK [G12I] | 3.79
YTFGSNQHGQLKTNTRRGSRAPCK [G12K] | 3.98
